{
  "source": "patent US20250179429A1",
  "about": "“CELL CULTURE MEDIUM” (Auckland UniServices Limited, priority 2017, published 2025)",
  "test_system": "Human primary keratinocytes",
  "test": "Keratinocyte growth in culture media: rhodamine B staining, confluency measured with Operetta plate reader",
  "assay_type": "cell-based",
  "note": "Where two headings read alike, the source gives them in different places.",
  "data": [
    {"molecule": "KGF: Keratinocyte growth factor, encoded in humans by the FGF7 gene, binds FGFR2b (protein, UniProt P21781 32-194, looked up) Fibroblast growth factor 7: CNDMTPEQMATNVNCSSPERHTRSYDYMEGGDIRVRRLFCRTQWYLRIDKRGKVKGTQEMKNNYNIMEIRTVAVGIVAIKGVESEFYLAMNKEGKLYAKKECNEDCNFKELILENHYNTYASAKWTHNGGEMFVALNQKGIPVRGKKTKKEQKTAHFLPMAIT", "values": [
      {"measurement": "effect of added KGF on keratinocyte growth, FIG. 1", "result": "cannot rescue the growth"},
      {"measurement": "effect of added KGF on keratinocyte growth, FIG. 1", "setting": "added to Green's media + Y27632", "result": "fails to enhance keratinocyte growth"},
      {"measurement": "effect of added KGF on keratinocyte growth, FIG. 1", "setting": "added to base media + Y27632", "result": "stimulates growth"},
      {"measurement": "effect of adding KGF to Base medium on keratinocyte growth, FIG. 2", "setting": "in the presence of ROCK inhibitor SB772077B, no MEFs", "result": "critical component in Kelch's medium"}
    ]}
  ]
}
